One substance from patent publication US5767078A, “Agonist peptide dimers” (priority 1995, dated 1998) can be followed below.

Bridge positions count the residues as written; N and C are the ends. Ends that are not written are not given here.

One test has as its target T1, murine EPO receptor (Mus musculus, UniProt P14753).
T1 construct: expressed in transfected cells; host or cells: FDC-P1/ER cells
T1 sequence (P14753 25-507): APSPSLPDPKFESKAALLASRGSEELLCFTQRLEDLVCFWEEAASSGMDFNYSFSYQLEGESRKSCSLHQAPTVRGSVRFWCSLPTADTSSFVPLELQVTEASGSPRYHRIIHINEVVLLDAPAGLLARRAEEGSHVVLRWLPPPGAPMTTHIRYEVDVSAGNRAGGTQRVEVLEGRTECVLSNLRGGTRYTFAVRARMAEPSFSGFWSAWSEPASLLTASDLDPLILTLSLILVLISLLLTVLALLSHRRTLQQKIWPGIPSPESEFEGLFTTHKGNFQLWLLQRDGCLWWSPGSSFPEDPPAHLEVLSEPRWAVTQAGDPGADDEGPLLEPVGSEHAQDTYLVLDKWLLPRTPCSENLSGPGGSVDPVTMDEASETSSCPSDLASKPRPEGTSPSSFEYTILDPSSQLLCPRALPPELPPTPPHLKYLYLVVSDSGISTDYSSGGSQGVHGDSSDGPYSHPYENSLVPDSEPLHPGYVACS
Put plainly: EPO dependent cell proliferation assay, FDC-P1/ER cells. It is filed as cell-based. Here is the method: After 24 hours, the cells were counted, resuspended at 800,000 cells/ml and dispensed at 40,000 cells/well. Stock solutions of the peptide dimer (5 mM in PBS) and peptide (10 mM in DMSO) were prepared and dispensed in triplicate to final concentrations of 1×10^-10 M through 1×10^-5 M and adjusted to a final volume of 0.2 ml. […] After a 42 hr incubation at 37° C. (ca. 2 cell doublings) 1 μCi/well of [^3 H] thymidine was added and the incubation continued for 6 hr at which time the cells were harvested and counted to assess [^3 H]thymidine incorporation as a measure of cell proliferation.

The next test relates to BDF1 mice. Description: Polycythemic exhypoxic mouse bioassay ([59Fe] incorporation into nascent red blood cells). It is filed as in vivo. Conditions: on a mole equivalent basis. The method, then:
Peptides were assayed for in vivo activity in the polycythemic mouse bioassay adapted from the method described by Cotes and Bangham (1961), Nature 191: 1065-1067. BDF1 mice were allowed to acclimate to ambient conditions for 7-10 days. Body weights were determined for all animals. Low weight animals (<15 grams) were not used. Mice were introduced to hypobaric chambers with a 24 hour conditioning cycle consisting of 0.40% +/-0.02 atm. for 18 hours followed by 6 hours at ambient pressure for a total of 14 days. Following the 14 day period, mice were placed in ambient pressure for 72 hours prior to dosing. […] Peptide sample stock solutions (excluding peptide dimers) were first solubilized in dimethyl sulfoxide (DMSO). Control groups included one group of vehicle alone, and one group of (DMSO) at final concentration of 1%.
Each dose group contained 10 mice. Mice were injected subcutaneously (scruff of neck) with 0.5 ml of the appropriate sample. […]
Mouse body weights were determined twenty four hours following [^59 Fe] administration and the mice were sacrificed forty eight hours following the [^59 Fe] injection. Blood was collected from each animal by cardiac puncture and hematocrits were determined (heparin was used as the anticoagulant). Each blood sample (0.2 ml) was analyzed for [^59 Fe] incorporation using a Packard gamma counter. […]

Take “peptide (SEQ ID NO: 8)/PEG-dimer: PEG dimer of peptide SEQ ID NO: 8, lot not stated for the in vivo bioassay (GGTYSCHFGPLTWVCKPQGG-NH2; disulfide 6-15 (inferred); also: PEG covalent dimer)”: the “increase in potency versus parent peptide, murine receptor line” value in the test with murine EPO receptor stood at 10 fold. Moreover, the “in vivo activity of dimer relative to monomer” value with BDF1 mice is listed as “about 10 fold”.
